Data reported in patent US20210024639A1 (AGOMAB THERAPEUTICS, published 2021).

Tests used:
[1] = target: T1, native human MET on living human cells (human, UniProt P08581 25-1390); assay: cell-based or functional assay
[2] = target: T2, native mouse MET on living mouse cells (mouse, UniProt P16056 25-1379); assay: cell-based or functional assay
[3] = target: T1, native human MET on living human cells; assay: cell-based or functional assay; remark: listed apart in the source
[4] = target: T2, native mouse MET on living mouse cells; assay: cell-based or functional assay; remark: listed apart in the source
[5] = target: T1, native human MET on living human cells; assay: flow cytometry, A549 cells
Protocol: (§1) We also analysed whether chimeric anti-MET antibodies bound to native human and mouse MET in living cells. […] Antibody binding to cells was analysed by flow cytometry using phycoerythrin-conjugated anti-human IgG1 antibodies (eBioscience) and a CyAn ADP analyser (Beckman Coulter). As a positive control for human MET binding, we used a commercial mouse anti-human MET antibody (R&D Systems) and phycoerythrin-conjugated anti-mouse IgG1 antibodies (eBioscience). As a positive control for mouse MET binding we used a commercial goat anti-mouse MET antibody (R&D Systems) and phycoerythrin-conjugated anti-goat IgG1 antibodies (eBioscience). […] Consistent with the data obtained in ELISA, maximal binding (EMAX) varied depending on antibody, but was similar in human and mouse cells.

[6] = target: T2, native mouse MET on living mouse cells; assay: flow cytometry, MLP29 cells
Protocol: as §1

[7] = target: human MET ECD mutant A (mutations 1, 2, 3) (human) (UniProt P08581); assay: ELISA, MET ECD mutant in solid phase, mAb 0-50 nM
[8] = target: human MET ECD mutant D (mutations 1, 2) (human) (UniProt P08581); assay: ELISA, MET ECD mutant in solid phase, mAb 0-50 nM
[9] = target: human MET ECD mutant E (mutations 2, 3, 4) (human) (UniProt P08581); assay: ELISA, MET ECD mutant in solid phase, mAb 0-50 nM
[10] = target: human MET ECD mutant H (mutations 2, 4) (human) (UniProt P08581); assay: ELISA, MET ECD mutant in solid phase, mAb 0-50 nM
[11] = target: T3, human MET extracellular domain (ECD) (human, UniProt P08581 25-932); assay: ELISA, MET ECD in solid phase, mAb 0-50 nM
T3 construct: range 1-932; recombinant ECD; also called hMET; human MET ECD
Protocol: Using human MET as a template, we mutagenized each of these residues in different permutations, generating a series of MET mutants that are fully human except for specific residues, which are llama. Next, we tested the affinity of selected SEMA-binding mAbs (71D6, 71C3, 71D4, 71A3, 71G2) and PSI-binding mAbs (76H10 and 71G3) for these MET mutants by ELISA. To this end, the various MET proteins were immobilized in solid phase (100 ng/well in a 96-well plate) and then exposed to increasing concentrations of antibodies (0-50 nM) solution. […] Wild-type human MET was used as positive control.
TABLE 18 The epitopes of MET responsible for agonistic antibody binding represent residues conserved among H. sapiens, M. musculus, R. norvegicus, M. fascicularis but not among the same species and L. glama. The relevance of residues conserved among human, mouse, rat, cynomolgus monkey but not llama MET for binding to agonistic mAbs was tested by ELISA. Wild-type (WT) or mutant (MT) human MET ECD was immobilized in solid phase and exposed to increasing concentrations of mAbs in solution. […] All binding values were normalized to the WT protein and are expressed as % binding (EMAX) compared to WT MET.

[12] = target: T4, human MET-Fc chimeric protein (R&D Systems) (human, UniProt P08581 25-932); assay: competition ELISA, hMET-Fc in solid phase, competitor 0.3 nM biotinylated hHGF
T4 construct: extracellular domain; bought (R&D Systems); also called hMET; not shown: Fc portion of human IgG1
Protocol: (§2) To investigate along this line, we tested the competition between mAbs and HGF by ELISA. Recombinant human and mouse HGF (R&D Systems) were biotinylated at the N-terminus using NHS-LC-biotin (Thermo Scientific). MET-Fc protein, either human or mouse (R&D Systems), was immobilized in solid phase and then exposed to 0.3 nM biotinylated HGF, either human or mouse, in the presence of increasing concentrations of antibodies (0-120 nM).
(§3) A MET-Fc chimeric protein (either human or mouse) was immobilized in solid phase and exposed to a fixed concentration of biotinylated HGF (either human or mouse), in the presence of increasing concentrations of antibodies. […] Antibody-HGF competition is expressed as IC₅₀ (the concentration that achieves 50% competition) and IMAX (the maximum % competition reached at saturation).

[13] = target: T5, mouse MET-Fc chimeric protein (R&D Systems) (mouse, UniProt P16056 25-929, limits assumed); assay: competition ELISA, mMET-Fc in solid phase, competitor 0.3 nM biotinylated mHGF
T5 construct: bought (R&D Systems); also called mMET; not shown: Fc
Protocol: as §2, §3

| Binder | cell scattering score, HPAF-II, 0.001 nM [1] [score 0-4] | cell scattering score, HPAF-II, 0.004 nM [1] [score 0-4] | cell scattering score, HPAF-II, 0.012 nM [1] [score 0-4] | cell scattering score, HPAF-II, 0.037 nM [1] [score 0-4] | cell scattering score, HPAF-II, 0.111 nM [1] [score 0-4] | cell scattering score, HPAF-II, 0.333 nM [1] [score 0-4] | cell scattering score, HPAF-II, 1.000 nM [1] [score 0-4] | cell scattering score, HPAF-II, 3.000 nM [1] [score 0-4] | cell scattering score, HPAF-II, 9.000 nM [1] [score 0-4] | cell scattering score, MLP29, 0.001 nM [2] [score 0-4] | cell scattering score, MLP29, 0.004 nM [2] [score 0-4] | cell scattering score, MLP29, 0.012 nM [2] [score 0-4] | cell scattering score, MLP29, 0.037 nM [2] [score 0-4] | cell scattering score, MLP29, 0.111 nM [2] [score 0-4] | cell scattering score, MLP29, 0.333 nM [2] [score 0-4] | cell scattering score, MLP29, 1.000 nM [2] [score 0-4] | cell scattering score, MLP29, 3.000 nM [2] [score 0-4] | cell scattering score, MLP29, 9.000 nM [2] [score 0-4] | protection from staurosporine, viability EC50, MCF10A [3] [nM] | protection from staurosporine, viability EMAX, MCF10A [3] [%] | other results |
| --- | --- | --- | --- | --- | --- | --- | --- | --- | --- | --- | --- | --- | --- | --- | --- | --- | --- | --- | --- | --- | --- |
| chimeric llama-human IgG1 mAb 71D6 (antibody, V domains shown) VH: ELQLVESGGGLVQPGGSLRLSCAASGFTFSSYGMSWVRQAPGKGLEWVSAINSYGGSTSYADSVKGRFTISRDNAKNTLYLQMNSLKPEDTAVYYCAKEVRADLSRYNDYESYDYWGQGTQVTVSS VL: QPVLNQPSALSVTLGQTAKITCQGGSLGARYAHWYQQKPGQAPVLVIYDDDSRPSGIPERFSGSSSGGTATLTISGAQAEDEGDYYCQSADSSGSVFGGGTHLTVL | 0 | 1 | 2 | 3 | 4 | 4 | 4 | 4 | 4 | 0 | 1 | 2 | 3 | 4 | 4 | 4 | 4 | 4 | 1.48 | 66.8 | protection from staurosporine, viability EC50, MLP29 [4]: 0.95 nM; protection from staurosporine, viability EMAX, MLP29 [4]: 68.3%; EMAX (% relative to control) [5]: 113%; EMAX (% relative to control) [6]: 121%; % binding (EMAX) compared to WT MET [7]: 103%; % binding (EMAX) compared to WT MET [8]: 128%; % binding (EMAX) compared to WT MET [9]: 43.6%; % binding (EMAX) compared to WT MET [10]: 38.6%; % binding (EMAX) compared to WT MET [11]: 100%; IMAX (maximum % competition) [12]: 98.3%; IMAX (maximum % competition) [13]: 90.5% |
| chimeric llama-human IgG1 mAb 71C3 (antibody, V domains shown) VH: QLQLVESGGGLVQPGGSLRLSCAASGFTFSSHAMSWVRQAPGKGLEWVSAINSGGGSTSYADSVKGRFTISRDNAKNTLYLQMNSLKPEDTAVYYCAKELRFDLARYTDYEAWDYWGQGTQVTVSS VL: SYELTQPSALSVTLGQTAKITCQGGSLGSSYAHWYQQKPGQAPVLVIYDDDSRPSGIPERFSGSSSGGTATLTISGAQAEDEGDYYCQSADSSGNAAVFGGGTHLTVL | 0 | 0 | 0 | 0 | 1 | 2 | 3 | 4 | 4 | 0 | 0 | 0 | 0 | 1 | 2 | 3 | 4 | 4 | 31.9 | 50.2 | protection from staurosporine, viability EC50, MLP29 [4]: 31 nM; protection from staurosporine, viability EMAX, MLP29 [4]: 51.3%; EMAX (% relative to control) [5]: 106%; EMAX (% relative to control) [6]: 115%; % binding (EMAX) compared to WT MET [7]: 99.8%; % binding (EMAX) compared to WT MET [8]: 102%; % binding (EMAX) compared to WT MET [9]: 59.6%; % binding (EMAX) compared to WT MET [10]: 61.6%; % binding (EMAX) compared to WT MET [11]: 100%; IMAX (maximum % competition) [12]: 93.6%; IMAX (maximum % competition) [13]: 89.2% |
| chimeric llama-human IgG1 mAb 71D4 (antibody, V domains shown) VH: ELQLVESGGGLVQPGGSLRLSCAASGFTFSGYGMSWVRQAPGKGLEWVSDINSGGGSTSYADSVKGRFTISRDNAKNTLYLQMNSLKPEDTAVYYCAKDMRLYLARYNDYEAWDYWGQGTQVTVSS VL: SSALTQPSALSVTLGQTAKITCQGGSLGSSYAHWYQQKPGQAPVLVIYDDDSRPSGIPERFSGSSSGGTATLTISGAQAEDEGDYYCQSADSSGNAAVFGGGTHLTVL | 0 | 0 | 0 | 0 | 0 | 0 | 1 | 2 | 2 | 0 | 0 | 0 | 0 | 0 | 0 | 1 | 2 | 2 | 30.2 | 51.7 | protection from staurosporine, viability EC50, MLP29 [4]: 29.8 nM; protection from staurosporine, viability EMAX, MLP29 [4]: 52.1%; EMAX (% relative to control) [5]: 107%; EMAX (% relative to control) [6]: 94.8%; % binding (EMAX) compared to WT MET [7]: 114%; % binding (EMAX) compared to WT MET [8]: 120%; % binding (EMAX) compared to WT MET [9]: 57.2%; % binding (EMAX) compared to WT MET [10]: 58.7%; % binding (EMAX) compared to WT MET [11]: 100%; IMAX (maximum % competition) [12]: 95.6%; IMAX (maximum % competition) [13]: 91.3% |
| chimeric llama-human IgG1 mAb 71A3 (antibody, V domains shown) VH: EVQLVESGGGLVQPGGSLRLSCAASGFSFKDYDITWVRQAPGKGLEWVSTITSRSGSTSYVDSVKGRFTISGDNAKNTLYLQMNSLKPEDTAVYYCAKVYATTWDVGPLGYGMDYWGKGTLVTVSS VL: SYELTQPSALSVTLGQTAKITCQGGSLGSSYAHWYQQKPGQAPVLVIYDDDSRPSGIPERFSGSSSGGTATLTISGAQAEDEGDYYCQSADSSGNAAVFGGGTHLTVL | 0 | 0 | 2 | 3 | 3 | 4 | 4 | 4 | 4 | 0 | 0 | 2 | 3 | 3 | 4 | 4 | 4 | 4 | < 0.5 | 71.7 | protection from staurosporine, viability EC50, MLP29 [4]: < 0.5 nM; protection from staurosporine, viability EMAX, MLP29 [4]: 70.5%; EMAX (% relative to control) [5]: 161%; EMAX (% relative to control) [6]: 144%; % binding (EMAX) compared to WT MET [7]: 117%; % binding (EMAX) compared to WT MET [8]: 128%; % binding (EMAX) compared to WT MET [9]: 65.4%; % binding (EMAX) compared to WT MET [10]: 76.7%; % binding (EMAX) compared to WT MET [11]: 100%; IMAX (maximum % competition) [12]: 93.4%; IMAX (maximum % competition) [13]: 87.7% |
